Data as given in publication PMC5640846.
Several values for one entry are separate records, joined by “and”; a condition that tells them apart may be missing. Identical values can stand only once.

How the values were obtained:
[1] = target: HTNV Gn ectodomain (Hantaan virus glycoprotein Gn, residues 18 to 371) (Hantaan virus (HTNV)); test: AUC
[2] = target: HTNV Gn ectodomain (Hantaan virus glycoprotein Gn, residues 18 to 371) (Hantaan virus (HTNV)); test: crystal structure

Q: “HTNV Gn ectodomain (Hantaan virus glycoprotein Gn, residues 18 to 371) (domain or fragment)” was tested. Which stoichiometry N [1] did it give?
A: 2 and 3 and 4

Q: And the stoichiometry N [2]?
A: 4
